Values quoted from earlier work in patent US20220241413A1, “COMBINATION THERAPIES USING CD-38 ANTIBODIES” (Takeda Pharmaceutical Company Limited, priority 2019, published 2022).
Where two headings read alike, the source gives them in different places.

Key:
[1] = tested on: RBCs and platelets; conditions: cited from earlier work
[2] = tested on: NK cells; conditions: IV, patients with RRMM, doses up to 24 mg/kg; cited from earlier work
[3] = IV, patients with RRMM, doses up to 24 mg/kg; cited from earlier work
[4] = cited from earlier work
[5] = cited from earlier work; remark: listed apart in the source
[6] = SC formulation with hyaluronidase

isatuximab: anti-CD38 IgG1 antibody
binding to RBCs and platelets [1]: strongly bind

daratumumab: first approved anti-CD38 drug, anti-CD38 IgG1 antibody
comparable depletion of NK cells (to >90% with AB79) [2]: not achieved
mean Cmax [3]: > 500 µg/mL
binding to RBCs and platelets [1]: strongly bind
incidence of IRR, Grade 3 or higher ([4]; IV administration): ≤ 9%
incidence of IRR, all grades ([4]; IV administration): ≥ 50%
incidence of IRR, Grade 3 or higher [4, 6]: 8%
incidence of IRR, all grades [4, 6]: 16%
Grade 3 and 4 TEAE: hypertension ([4]; SC): 8%
Grade 3 and 4 TEAE: lymphopenia ([4]; SC): 20%
Grade 3 and 4 TEAE: neutropenia ([4]; SC): 8%
Grade 3 and 4 TEAE: thrombocytopenia ([4]; SC): 8%
injection site reactions (induration, erythema, discoloration, hematomas) ([4]; SC): 16.7 % of patients
persistence of positive indirect Coombs test results after the last infusion ([4]; binding to CD38 on RBCs): up to 6 months
patients with severe and serious IRRs, including anaphylactic reactions ([4]; human, in vivo): approximately half

MOR202: anti-CD38 IgG1 antibody, used clinically via IV infusion
Grade ≥3 TEAE: hypertension ([5]; RRMM, IV infusion): 9%
Grade ≥3 TEAE: leukopenia ([5]; RRMM, IV infusion): 11%
Grade ≥3 TEAE: lymphopenia ([5]; RRMM, IV infusion): 18%
TEAE at any grade: anemia ([5]; RRMM, IV infusion): 34%
TEAE at any grade: fatigue ([5]; RRMM, IV infusion): 32%
TEAE at any grade: infusion-related reactions (IRRs) ([5]; RRMM, IV infusion): 30%
TEAE at any grade: leukopenia ([5]; RRMM, IV infusion): 30%
TEAE at any grade: lymphopenia ([5]; RRMM, IV infusion): 25%
TEAE at any grade: nausea ([5]; RRMM, IV infusion): 25%
patients with Grade ≥3 TEAEs ([5]; RRMM, IV infusion): 64%
infections ([5]; in vivo, iv): 59%
